These results are taken from US20180305460A1 (Teva, published 2018).

What is called Kd is the constant that tells how readily two partners part at equilibrium. High values mean weaker binding, low ones tighter binding.

B1: X02.9 (antibody, human IgG4 S228P)
heavy: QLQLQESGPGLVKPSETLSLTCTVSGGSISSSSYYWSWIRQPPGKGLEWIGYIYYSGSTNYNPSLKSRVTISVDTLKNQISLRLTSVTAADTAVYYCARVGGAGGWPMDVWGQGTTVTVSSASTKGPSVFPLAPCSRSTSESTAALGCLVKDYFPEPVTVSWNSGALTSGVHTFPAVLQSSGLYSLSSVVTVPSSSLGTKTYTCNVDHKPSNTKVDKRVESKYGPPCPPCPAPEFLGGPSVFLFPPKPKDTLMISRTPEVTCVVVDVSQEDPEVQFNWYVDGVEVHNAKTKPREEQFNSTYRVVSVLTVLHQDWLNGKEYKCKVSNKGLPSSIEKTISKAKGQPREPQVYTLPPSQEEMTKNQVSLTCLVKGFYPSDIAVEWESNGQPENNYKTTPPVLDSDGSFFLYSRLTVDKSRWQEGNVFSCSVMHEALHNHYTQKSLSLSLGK
VL: QAVLTQPASLSASPGESARLTCTLPSDINVRYYNIYWYQQKPGSPPRYLLYYYSDSHKGQGSGVPSRFSGSKDVSTNSGILLISGLQSEDEADYYCMTWSSNGSGVFGGGTQLTVLG
notes: IgG4 S228P; VH H40P relative to X02.1
B2: X02.110 (antibody, human IgG4 S228P, V domains shown)
VH: QLQLQESGPGLVKPSETLSLTCTVSGGSISSSSYYWSWIRQHPGKGLEWIGYIYYSGSTNYNPSLKSRVTISVDTLKNQISLKLTSVTAADTAVYYCARVGGAGGWPMDVWGQGTTVTVSS
VL: QAVLTQPASLSASPGESARLTCTLPSDINVRYYNIYWYQQKPGSPPRYLLYYYSDSHKGQGSGVPSRFSGSKDVSTNSGILLISGLQSEDEADYYCMTWSSNGSGVFGGGTQLTVLG
notes: IgG4 S228P; VH R81K relative to X02.1
B3: X02.108 (antibody, human IgG4 S228P, V domains shown)
VH: QLQLQESGPGLVKPSETLSLTCTVSGGSISSSSYYWSWIRQHPGKGLEWIGYIYYSGSTNYNPSLKSRVTISVDTLKNQFSLRLTSVTAADTAVYYCARVGGAGGWPMDVWGQGTTVTVSS
VL: QAVLTQPASLSASPGESARLTCTLPSDINVRYYNIYWYQQKPGSPPRYLLYYYSDSHKGQGSGVPSRFSGSKDVSTNSGILLISGLQSEDEADYYCMTWSSNGSGVFGGGTQLTVLG
notes: IgG4 S228P; VH I78F relative to X02.1
B4: X02.10 (antibody, human IgG4 S228P)
heavy: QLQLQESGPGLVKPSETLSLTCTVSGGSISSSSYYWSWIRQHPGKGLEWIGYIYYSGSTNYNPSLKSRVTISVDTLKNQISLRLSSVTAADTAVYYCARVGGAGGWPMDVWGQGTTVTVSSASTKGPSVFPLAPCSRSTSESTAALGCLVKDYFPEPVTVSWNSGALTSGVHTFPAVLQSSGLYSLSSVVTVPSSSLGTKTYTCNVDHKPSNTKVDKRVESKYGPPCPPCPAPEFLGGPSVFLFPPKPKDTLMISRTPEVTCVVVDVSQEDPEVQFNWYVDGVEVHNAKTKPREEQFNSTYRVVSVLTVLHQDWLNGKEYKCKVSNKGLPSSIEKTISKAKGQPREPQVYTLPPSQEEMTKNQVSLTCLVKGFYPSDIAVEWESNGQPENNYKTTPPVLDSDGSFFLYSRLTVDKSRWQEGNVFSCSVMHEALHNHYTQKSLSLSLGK
VL: QAVLTQPASLSASPGESARLTCTLPSDINVRYYNIYWYQQKPGSPPRYLLYYYSDSHKGQGSGVPSRFSGSKDVSTNSGILLISGLQSEDEADYYCMTWSSNGSGVFGGGTQLTVLG
notes: IgG4 S228P; VH T(82A)S relative to X02.1
B5: X02.97 (antibody)
heavy: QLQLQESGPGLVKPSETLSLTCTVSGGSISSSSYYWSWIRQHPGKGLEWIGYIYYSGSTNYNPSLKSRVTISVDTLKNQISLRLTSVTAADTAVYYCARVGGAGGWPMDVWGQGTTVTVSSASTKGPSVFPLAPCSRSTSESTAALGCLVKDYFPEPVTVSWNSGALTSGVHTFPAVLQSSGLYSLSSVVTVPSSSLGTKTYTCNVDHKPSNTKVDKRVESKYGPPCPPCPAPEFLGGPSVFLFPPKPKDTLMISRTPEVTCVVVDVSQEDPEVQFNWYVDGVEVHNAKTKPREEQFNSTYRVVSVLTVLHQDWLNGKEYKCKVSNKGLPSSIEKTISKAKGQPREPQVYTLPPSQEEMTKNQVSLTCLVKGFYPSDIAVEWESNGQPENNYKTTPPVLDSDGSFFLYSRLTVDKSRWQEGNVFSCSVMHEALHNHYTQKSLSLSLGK
VL: QAVLTQPASSSASPGESARLTCTLPSDINVRYYNIYWYQQKPGSPPRYLLYYYSDSHKGQGSGVPSRFSGSKDVSTNSGILLISGLQSEDEADYYCMTWSSNGSGVFGGGTQLTVLG
notes: IgG4 S228P with the X02.1 VH; VL L11S relative to A02.1
B6: X02.106 (antibody, V domains shown)
VH: QLQLQESGPGLVKPSETLSLTCTVSGGSISSSSYYWSWIRQHPGKGLEWIGYIYYSGSTNYNPSLKSRVTISVDTLKNQISLRLTSVTAADTAVYYCARVGGAGGWPMDVWGQGTTVTVSS
VL: QAVLTQPASLSASPGESARLTCTLPSDINVRYYNIYWYQQKPGSPPRYLLYYYSDSHKGQGSGVPSRFSGSKDVSTNSGILLISGLQSEDEADYYCMTWSSNASGVFGGGTQLTVLG
notes: IgG4 S228P with the X02.1 VH; VL G95A relative to A02.1
B7: X02.105 (antibody, V domains shown)
VH: QLQLQESGPGLVKPSETLSLTCTVSGGSISSSSYYWSWIRQHPGKGLEWIGYIYYSGSTNYNPSLKSRVTISVDTLKNQISLRLTSVTAADTAVYYCARVGGAGGWPMDVWGQGTTVTVSS
VL: QAVLTQPASLSASPGESARLTCTLPSDINVRYYNIYWYQQKPGSPPRYLLYYYSDSHKGQGSGVPSRFSGSKDVSTNSGILLISGLQSEDEADYYCMTWPSNGSGVFGGGTQLTVLG
notes: IgG4 S228P with the X02.1 VH; VL S92P relative to A02.1
B8: X02.100 (antibody, V domains shown)
VH: QLQLQESGPGLVKPSETLSLTCTVSGGSISSSSYYWSWIRQHPGKGLEWIGYIYYSGSTNYNPSLKSRVTISVDTLKNQISLRLTSVTAADTAVYYCARVGGAGGWPMDVWGQGTTVTVSS
VL: QAVLTQPASLSASPGESARLTCTLPSDINVRYYNIYWYQQKPGSPPRYLLYYYSDSDKGQGSGVPSRFSGSKDVSTNSGILLISGLQSEDEADYYCMTWSSNGSGVFGGGTQLTVLG
notes: IgG4 S228P with the X02.1 VH; VL H(54A)D relative to A02.1
B9: X02.99 (antibody, V domains shown)
VH: QLQLQESGPGLVKPSETLSLTCTVSGGSISSSSYYWSWIRQHPGKGLEWIGYIYYSGSTNYNPSLKSRVTISVDTLKNQISLRLTSVTAADTAVYYCARVGGAGGWPMDVWGQGTTVTVSS
VL: QAVLTQPASLSASPGESARLTCTLPSDINVRSYNIYWYQQKPGSPPRYLLYYYSDSHKGQGSGVPSRFSGSKDVSTNSGILLISGLQSEDEADYYCMTWSSNGSGVFGGGTQLTVLG
notes: IgG4 S228P with the X02.1 VH; VL Y30S relative to A02.1
B10: X02.104 (antibody, V domains shown)
VH: QLQLQESGPGLVKPSETLSLTCTVSGGSISSSSYYWSWIRQHPGKGLEWIGYIYYSGSTNYNPSLKSRVTISVDTLKNQISLRLTSVTAADTAVYYCARVGGAGGWPMDVWGQGTTVTVSS
VL: QAVLTQPASLSASPGESARLTCTLPSDINVRYYNIYWYQQKPGSPPRYLLYYYSDSHKGQGSGVPSRFSGSKDVSTNSGILLISGLQSEDEADYYCMIWSSNGSGVFGGGTQLTVLG
notes: IgG4 S228P with the X02.1 VH; VL T90I relative to A02.1
B11: X02.98 (antibody, V domains shown)
VH: QLQLQESGPGLVKPSETLSLTCTVSGGSISSSSYYWSWIRQHPGKGLEWIGYIYYSGSTNYNPSLKSRVTISVDTLKNQISLRLTSVTAADTAVYYCARVGGAGGWPMDVWGQGTTVTVSS
VL: QAVLTQPASLSASPGESARLTCTLPSDINVGYYNIYWYQQKPGSPPRYLLYYYSDSHKGQGSGVPSRFSGSKDVSTNSGILLISGLQSEDEADYYCMTWSSNGSGVFGGGTQLTVLG
notes: IgG4 S228P with the X02.1 VH; VL R29S relative to A02.1
B12: X02.95 (antibody)
heavy: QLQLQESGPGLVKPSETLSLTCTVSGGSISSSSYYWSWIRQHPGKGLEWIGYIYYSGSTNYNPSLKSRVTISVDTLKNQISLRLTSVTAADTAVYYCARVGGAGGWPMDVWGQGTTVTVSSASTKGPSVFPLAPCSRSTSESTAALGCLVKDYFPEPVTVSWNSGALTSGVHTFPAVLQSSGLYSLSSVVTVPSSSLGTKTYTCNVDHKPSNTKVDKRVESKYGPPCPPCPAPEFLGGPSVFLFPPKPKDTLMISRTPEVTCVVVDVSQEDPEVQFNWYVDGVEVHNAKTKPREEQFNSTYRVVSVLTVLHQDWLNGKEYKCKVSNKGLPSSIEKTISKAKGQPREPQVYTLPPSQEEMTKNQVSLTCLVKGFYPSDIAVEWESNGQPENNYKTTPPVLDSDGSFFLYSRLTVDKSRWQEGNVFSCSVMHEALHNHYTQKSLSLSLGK
VL: QPVLTQPASLSASPGESARLTCTLPSDINVRYYNIYWYQQKPGSPPRYLLYYYSDSHKGQGSGVPSRFSGSKDVSTNSGILLISGLQSEDEADYYCMTWSSNGSGVFGGGTQLTVLG
notes: IgG4 S228P with the X02.1 VH; VL A2P relative to A02.1
B13: X02.90 (antibody, V domains shown)
VH: QLQLQESGPGLVKPSETLSLTCTVSGGSISSSSYYWSWIRQHPGKGLEWIGYIYYSGSTNYNPSLKSRVTISVDTLKNQISLRLTSVTAADTAVYYCARVGGAGGWPMDVWGQGTTVTVSS
VL: QAVLTQPASLSASPGESARLTCTLPSDINVRYYNIYWYQQKPGSPPRYLLYYYSDSHKGQGSGVPSRFSGSKDVSTNSGILLISGLQSEDEADYYCMTWSSTGSGVFGGGTQLTVLG
notes: IgG4 S228P with the X02.1 VH; VL N94T relative to A02.1
B14: X02.94 (antibody, V domains shown)
VH: QLQLQESGPGLVKPSETLSLTCTVSGGSISSSSYYWSWIRQHPGKGLEWIGYIYYSGSTNYNPSLKSRVTISVDTLKNQISLRLTSVTAADTAVYYCARVGGAGGWPMDVWGQGTTVTVSS
VL: QAVLTQPASLSASPGESARLTCTLPSDINVRYYNIYWYQQKPGSPPRYLLYYYSDSHKGQGSGVPSRFSGSKDVSTNSGILLISGLQSEDEADYYCLTWSSNGSGVFGGGTQLTVLG
notes: IgG4 S228P with the X02.1 VH; VL M89L relative to A02.1
B15: X02.80 (antibody, V domains shown)
VH: QLQLQESGPGLVKPSETLSLTCTVSGGSISSSSYYWSWIRQHPGKGLEWIGYIYYSGSTNYNPSLKSRVTISVDTLKNQISLRLTSVTAADTAVYYCARVGGAGGWPMDVWGQGTTVTVSS
VL: QAVLTQPASLSASPGESARLTCTLPSDINVRYYNIYWYQQKPGSPPRYLLYYYSDSHKGQGSGVPSRFSGSKDVSTNSGILLISGLQSEDEADYYCMTWSSQGSGVFGGGTQLTVLG
notes: IgG4 S228P with the X02.1 VH; VL N94Q relative to A02.1
B16: X02.87 (antibody, V domains shown)
VH: QLQLQESGPGLVKPSETLSLTCTVSGGSISSSSYYWSWIRQHPGKGLEWIGYIYYSGSTNYNPSLKSRVTISVDTLKNQISLRLTSVTAADTAVYYCARVGGAGGWPMDVWGQGTTVTVSS
VL: QAVLTQPASLSASPGESARLTCTLPSDINVRYYNIYWYQQKPGSPPRYLLYYYSDSHKGQGSGVPSRFSGSKDVSTNSGILLISGLQSEDEADYYCMTWSSNGAGVFGGGTQLTVLG
notes: IgG4 S228P with the X02.1 VH; VL S96A relative to A02.1
B17: X02.81 (antibody, V domains shown)
VH: QLQLQESGPGLVKPSETLSLTCTVSGGSISSSSYYWSWIRQHPGKGLEWIGYIYYSGSTNYNPSLKSRVTISVDTLKNQISLRLTSVTAADTAVYYCARVGGAGGWPMDVWGQGTTVTVSS
VL: QAVLTQPASLSASPGESARLTCTLPSDINVRYYNIYWYQQKPGSPPRYLLYYYSDSHKGQGSGVPSRFSGSKDVSTASGILLISGLQSEDEADYYCMTWSSNGSGVFGGGTQLTVLG
notes: IgG4 S228P with the X02.1 VH; VL N69A relative to A02.1
B18: X02.93 (antibody, V domains shown)
VH: QLQLQESGPGLVKPSETLSLTCTVSGGSISSSSYYWSWIRQHPGKGLEWIGYIYYSGSTNYNPSLKSRVTISVDTLKNQISLRLTSVTAADTAVYYCARVGGAGGWPMDVWGQGTTVTVSS
VL: QAVLTQPASLSASPGESARLTCTLPSDINVRYYNIYWYQQKPGSPPRYLLYYYSDSHKGQGSGVPSRFSGSKDVSTNSGILLISGLQSEDEADYYCITWSSNGSGVFGGGTQLTVLG
notes: IgG4 S228P with the X02.1 VH; VL M89I relative to A02.1
B19: X02.68 (antibody, human IgG4 S228P, V domains shown)
VH: QLQLQESGPGLVKPSETLSLTCKVSGGSISSSSYYWSWIRQHPGKGLEWIGYIYYSGSTNYNPSLKSRVTISVDTLKNQISLRLTSVTAADTAVYYCARVGGAGGWPMDVWGQGTTVTVSS
VL: QAVLTQPASLSASPGESARLTCTLPSDINVRYYNIYWYQQKPGSPPRYLLYYYSDSHKGQGSGVPSRFSGSKDVSTNSGILLISGLQSEDEADYYCMTWSSNGSGVFGGGTQLTVLG
notes: IgG4 S228P; VH T23K relative to X02.1
B20: X02.86 (antibody, V domains shown)
VH: QLQLQESGPGLVKPSETLSLTCTVSGGSISSSSYYWSWIRQHPGKGLEWIGYIYYSGSTNYNPSLKSRVTISVDTLKNQISLRLTSVTAADTAVYYCARVGGAGGWPMDVWGQGTTVTVSS
VL: QAVLTQPASLSASPGESARLTCTLPSGINVRYYNIYWYQQKPGSPPRYLLYYYSDSHKGQGSGVPSRFSGSKDVSTNSGILLISGLQSEDEADYYCMTWSSNGSGVFGGGTQLTVLG
notes: IgG4 S228P with the X02.1 VH; VL D(27A)G relative to A02.1
B21: X02.91 (antibody, V domains shown)
VH: QLQLQESGPGLVKPSETLSLTCTVSGGSISSSSYYWSWIRQHPGKGLEWIGYIYYSGSTNYNPSLKSRVTISVDTLKNQISLRLTSVTAADTAVYYCARVGGAGGWPMDVWGQGTTVTVSS
VL: QAVLTQPASLSASPGESARLTCTLRSDINVRYYNIYWYQQKPGSPPRYLLYYYSDSHKGQGSGVPSRFSGSKDVSTNSGILLISGLQSEDEADYYCMTWSSNGSGVFGGGTQLTVLG
notes: IgG4 S228P with the X02.1 VH; VL P26R relative to A02.1

One assay concerns the target T1, Human CD38 (human, UniProt P28907 43-300). Put plainly: SPR (Biacore), antibody from supernatant captured on Protein A, human CD38 injected, 1:1 fit. (In general: In SPR one partner is held on a chip, and binding of the other changes the refractive index at the surface.)
Protocol: (§1) The capacity of anti-CD38 antibodies and anti-CD38-attenuated IFN fusion proteins to bind to human CD38 were measured using unpurified transfected cell supernatant prepared 7:1 with Non Specific Binding Reducer (GE Healthcare, Piscataway, N.J.). […] FC2 (or FC4) was used as a reference throughout the experiments. The experiments were run at 37° C. in HBS-P+ buffer (0.01 M HEPES, 0.15 M NaCl, 0.005% v/v Surfactant P20, pH 7.4). At a flow rate of 20 l/min, both flow cells were regenerated with 10 μL 50 mM sodium hydroxide before 40 μL supernatant containing the protein was passed over FC1 (or FC3) only. 301 μL of CD38 (10 g/mL in running buffer) or 30 μL running buffer was injected over FC1 and FC2 with a 5 minute dissociation time. Both surfaces were regenerated twice with sodium hydroxide. Results were generated using the BIAevaluation software provided with the machine. Microsoft Excel was used for calculations. BIAevaluation software automatically subtracted the reference sensorgram giving a trace of FC2-1 (or FC4-3) for each sample. A double reference was performed for each antibody tested by subtracting the sensorgram with a CD38 injection from the sensorgram with a blank running buffer injection. […] BIAevalution was used to fit the sensorgram using a Langmuir 1:1 equation in order to generate an equilibrium association constant (KD)
Molecule B1 had a Kd of 26.3 nM. Molecule B2 yielded a Kd of 20.7 nM. Still for that read-out and setting: the value for B3 was 26.3 nM; that for B4 was 20.7 nM.

A further assay addresses T1, Human CD38. The assay is described as above. This is another data set of the same source.
Protocol: as §1
Turning to B5, the Kd turned out to be 0.00751 nM. Consider B6, for which the Kd was 44.7 nM. Same read-out and setting: as for B7, the figure is 33.1 nM. The same measure, in the same setting: the value for B8 was 160 nM; that for B9 was 0.00321 nM.

For the molecule B10, binding was put at a Kd of 10 nM. On the same count and under the same terms, the value for B11 was 0.00584 nM.

The molecule B12 returned a dissociation constant (Kd) of 0.0044 nM.

The next assay deals with T1, Human CD38. Described as above. The source holds these as a separate data set.
Protocol: as §1
Molecule B13 had a Kd of 0.552 nM. On the same count and under the same terms, the value for B14 was 0.00348 nM; that for B15 was 1.44 nM; that for B16 was 1.99 nM.

In turn, B17 returned a Kd of 0.267 nM. Still for that read-out and setting: the value for B18 was 0.0256 nM.

A further assay concerns the target T1, Human CD38. The description is as above. This is another data set of the same source.
Protocol: as §1
B19: the Kd came to 0.0106 nM.

A further assay addresses T1, Human CD38. Described as above. This is another data set of the same source.
Protocol: as §1
On to B20, for which the Kd came to 4.28 nM. In turn, B21 returned a Kd of 0.707 nM.
